# Source: US20130090286A1 (published 2013)
# Values joined by “and” are separate entries in the source; they are usually repeats but may differ in a detail not shown here. Identical values can stand only once. Numbered stars: 1 amine (or outer) side, 2 acyl side, 3 side chain; on linkers, the order of the positions; unused ones are H or OH. Bridge positions count the residues as written; N and C are the ends. Square brackets hold non-standard residues; d marks the D form. Side chains are listed from the residue outwards. Ends that are not written are not given here. * marks the point of attachment. γGlu = O=C(O)[C@H](CCC(=O)[*:2])N[*:1]; Palmitoyl = CCCCCCCCCCCCCCCC(=O)*; DMIA = not defined here; Aib = CC(C)(N)C(=O)O; βAla = NCCC(=O)O
# B1: Peptide 82 (Table 22, SEQ ID NO: 564) (peptide)
# peptide: H[Aib]QGTFTSDK([Ala-Ala-Palmitoyl])SKYLD[Aib]RRAQDFVQWLMNT-NH2
# B2: Peptide 83 (Table 22, SEQ ID NO: 565) (peptide)
# peptide: H[Aib]QGTFTSDK([γGlu-γGlu-Palmitoyl])SKYLD[Aib]RRAQDFVQWLMNT-NH2
# B3: Peptide 84 (Table 22, SEQ ID NO: 566) (peptide)
# peptide: H[Aib]QGTFTSDK([βAla-βAla-Palmitoyl])SKYLD[Aib]RRAQDFVQWLMNT-NH2
# B4: Peptide 86 (Table 22, SEQ ID NO: 568) (peptide)
# peptide: H[Aib]QGTFTSDK([Leu-Leu-Palmitoyl])SKYLD[Aib]RRAQDFVQWLMNT-NH2
# B5: Chi-2, d-Ser2, Lys10 γE-C16 (SEQ ID NO: 643) (peptide)
# peptide: H[dS]QGTFTSDK([γGlu-Palmitoyl])SKYLDEQAAKEFIAWLMNT
# B6: Chi-2, d-Ser2, Lys10 γE-γE-C16 (SEQ ID NO: 644) (peptide)
# peptide: H[dS]QGTFTSDK([γGlu-γGlu-Palmitoyl])SKYLDEQAAKEFIAWLMNT
# B7: Chi-2, AIB2, Lys10 γE-C16 (SEQ ID NO: 645) (peptide)
# peptide: H[Aib]QGTFTSDK([γGlu-Palmitoyl])SKYLDEQAAKEFIAWLMNT-NH2
# modifications: N-terminus assumed
# SMILES: CCCCCCCCCCCCCCCC(=O)N[C@@H](CCC(=O)NCCCC[C@H](NC(=O)[C@H](CC(=O)O)NC(=O)[C@H](CO)NC(=O)[C@@H](NC(=O)[C@H](Cc1ccccc1)NC(=O)[C@@H](NC(=O)CNC(=O)[C@H](CCC(N)=O)NC(=O)C(C)(C)NC(=O)[C@@H](N)Cc1c[nH]cn1)[C@@H](C)O)[C@@H](C)O)C(=O)N[C@@H](CO)C(=O)N[C@@H](CCCCN)C(=O)N[C@@H](Cc1ccc(O)cc1)C(=O)N[C@@H](CC(C)C)C(=O)N[C@@H](CC(=O)O)C(=O)N[C@@H](CCC(=O)O)C(=O)N[C@@H](CCC(N)=O)C(=O)N[C@@H](C)C(=O)N[C@@H](C)C(=O)N[C@@H](CCCCN)C(=O)N[C@@H](CCC(=O)O)C(=O)N[C@@H](Cc1ccccc1)C(=O)N[C@H](C(=O)N[C@@H](C)C(=O)N[C@@H](Cc1c[nH]c2ccccc12)C(=O)N[C@@H](CC(C)C)C(=O)N[C@@H](CCSC)C(=O)N[C@@H](CC(N)=O)C(=O)N[C@H](C(N)=O)[C@@H](C)O)[C@@H](C)CC)C(=O)O
# B8: Chi-2, AIB2, Lys10 γE-γE-C16 (SEQ ID NO: 646) (peptide)
# peptide: H[Aib]QGTFTSDK([γGlu-γGlu-Palmitoyl])SKYLDEQAAKEFIAWLMNT-NH2
# modifications: N-terminus assumed
# SMILES: CCCCCCCCCCCCCCCC(=O)N[C@@H](CCC(=O)N[C@@H](CCC(=O)NCCCC[C@H](NC(=O)[C@H](CC(=O)O)NC(=O)[C@H](CO)NC(=O)[C@@H](NC(=O)[C@H](Cc1ccccc1)NC(=O)[C@@H](NC(=O)CNC(=O)[C@H](CCC(N)=O)NC(=O)C(C)(C)NC(=O)[C@@H](N)Cc1c[nH]cn1)[C@@H](C)O)[C@@H](C)O)C(=O)N[C@@H](CO)C(=O)N[C@@H](CCCCN)C(=O)N[C@@H](Cc1ccc(O)cc1)C(=O)N[C@@H](CC(C)C)C(=O)N[C@@H](CC(=O)O)C(=O)N[C@@H](CCC(=O)O)C(=O)N[C@@H](CCC(N)=O)C(=O)N[C@@H](C)C(=O)N[C@@H](C)C(=O)N[C@@H](CCCCN)C(=O)N[C@@H](CCC(=O)O)C(=O)N[C@@H](Cc1ccccc1)C(=O)N[C@H](C(=O)N[C@@H](C)C(=O)N[C@@H](Cc1c[nH]c2ccccc12)C(=O)N[C@@H](CC(C)C)C(=O)N[C@@H](CCSC)C(=O)N[C@@H](CC(N)=O)C(=O)N[C@H](C(N)=O)[C@@H](C)O)[C@@H](C)CC)C(=O)O)C(=O)O
# B9: Chi-2, AIB2, E3, Lys10-C16, no spacer (SEQ ID NO: 647) (peptide)
# peptide: H[Aib]EGTFTSDK(Palmitoyl)SKYLDEQAAKEFIAWLMNT-NH2
# modifications: N-terminus assumed
# SMILES: CCCCCCCCCCCCCCCC(=O)NCCCC[C@H](NC(=O)[C@H](CC(=O)O)NC(=O)[C@H](CO)NC(=O)[C@@H](NC(=O)[C@H](Cc1ccccc1)NC(=O)[C@@H](NC(=O)CNC(=O)[C@H](CCC(=O)O)NC(=O)C(C)(C)NC(=O)[C@@H](N)Cc1c[nH]cn1)[C@@H](C)O)[C@@H](C)O)C(=O)N[C@@H](CO)C(=O)N[C@@H](CCCCN)C(=O)N[C@@H](Cc1ccc(O)cc1)C(=O)N[C@@H](CC(C)C)C(=O)N[C@@H](CC(=O)O)C(=O)N[C@@H](CCC(=O)O)C(=O)N[C@@H](CCC(N)=O)C(=O)N[C@@H](C)C(=O)N[C@@H](C)C(=O)N[C@@H](CCCCN)C(=O)N[C@@H](CCC(=O)O)C(=O)N[C@@H](Cc1ccccc1)C(=O)N[C@H](C(=O)N[C@@H](C)C(=O)N[C@@H](Cc1c[nH]c2ccccc12)C(=O)N[C@@H](CC(C)C)C(=O)N[C@@H](CCSC)C(=O)N[C@@H](CC(N)=O)C(=O)N[C@H](C(N)=O)[C@@H](C)O)[C@@H](C)CC
# B10: Chi-2, AIB2, E3, Lys10 γE-γE-C16 (SEQ ID NO: 648) (peptide)
# peptide: H[Aib]EGTFTSDK([γGlu-γGlu-Palmitoyl])SKYLDEQAAKEFIAWLMNT
# B11: Chi-2, AIB2, I7, Lys10 γE-C16 (SEQ ID NO: 649) (peptide)
# peptide: H[Aib]QGTFISDK([γGlu-Palmitoyl])SKYLDEQAAKEFIAWLMNT-NH2
# modifications: N-terminus assumed
# SMILES: CCCCCCCCCCCCCCCC(=O)N[C@@H](CCC(=O)NCCCC[C@H](NC(=O)[C@H](CC(=O)O)NC(=O)[C@H](CO)NC(=O)[C@@H](NC(=O)[C@H](Cc1ccccc1)NC(=O)[C@@H](NC(=O)CNC(=O)[C@H](CCC(N)=O)NC(=O)C(C)(C)NC(=O)[C@@H](N)Cc1c[nH]cn1)[C@@H](C)O)[C@@H](C)CC)C(=O)N[C@@H](CO)C(=O)N[C@@H](CCCCN)C(=O)N[C@@H](Cc1ccc(O)cc1)C(=O)N[C@@H](CC(C)C)C(=O)N[C@@H](CC(=O)O)C(=O)N[C@@H](CCC(=O)O)C(=O)N[C@@H](CCC(N)=O)C(=O)N[C@@H](C)C(=O)N[C@@H](C)C(=O)N[C@@H](CCCCN)C(=O)N[C@@H](CCC(=O)O)C(=O)N[C@@H](Cc1ccccc1)C(=O)N[C@H](C(=O)N[C@@H](C)C(=O)N[C@@H](Cc1c[nH]c2ccccc12)C(=O)N[C@@H](CC(C)C)C(=O)N[C@@H](CCSC)C(=O)N[C@@H](CC(N)=O)C(=O)N[C@H](C(N)=O)[C@@H](C)O)[C@@H](C)CC)C(=O)O
# B12: Chi-2, AIB2, I7, Lys10 γE-γE-C16 (SEQ ID NO: 650) (peptide)
# peptide: H[Aib]QGTFISDK([γGlu-γGlu-Palmitoyl])SKYLDEQAAKEFIAWLMNT-NH2
# modifications: N-terminus assumed
# SMILES: CCCCCCCCCCCCCCCC(=O)N[C@@H](CCC(=O)N[C@@H](CCC(=O)NCCCC[C@H](NC(=O)[C@H](CC(=O)O)NC(=O)[C@H](CO)NC(=O)[C@@H](NC(=O)[C@H](Cc1ccccc1)NC(=O)[C@@H](NC(=O)CNC(=O)[C@H](CCC(N)=O)NC(=O)C(C)(C)NC(=O)[C@@H](N)Cc1c[nH]cn1)[C@@H](C)O)[C@@H](C)CC)C(=O)N[C@@H](CO)C(=O)N[C@@H](CCCCN)C(=O)N[C@@H](Cc1ccc(O)cc1)C(=O)N[C@@H](CC(C)C)C(=O)N[C@@H](CC(=O)O)C(=O)N[C@@H](CCC(=O)O)C(=O)N[C@@H](CCC(N)=O)C(=O)N[C@@H](C)C(=O)N[C@@H](C)C(=O)N[C@@H](CCCCN)C(=O)N[C@@H](CCC(=O)O)C(=O)N[C@@H](Cc1ccccc1)C(=O)N[C@H](C(=O)N[C@@H](C)C(=O)N[C@@H](Cc1c[nH]c2ccccc12)C(=O)N[C@@H](CC(C)C)C(=O)N[C@@H](CCSC)C(=O)N[C@@H](CC(N)=O)C(=O)N[C@H](C(N)=O)[C@@H](C)O)[C@@H](C)CC)C(=O)O)C(=O)O
# B13: DMIA1, E16/K20 lactam, Lys10 γE-C16 (SEQ ID NO: 651) (peptide)
# peptide: [DMIA]SQGTFTSDK([γGlu-Palmitoyl])SKYLDERRAKDFVQWLMNT
# modifications: lactam 16-20; reading uncertain
# B14: DMIA1, E16/K20 lactam, Lys29 γE-C16 (SEQ ID NO: 653) (peptide)
# peptide: XSQGTFTSDYSKYLDERRAKDFVQWLMNK
# modifications: DMIA at position 1; E16/K20 lactam; C16 fatty acyl on Lys29 via γ-Glu spacer
# B15: DMIA1, E16/K20 lactam, Lys29 γE-γE-C16 (SEQ ID NO: 654) (peptide)
# peptide: XSQGTFTSDYSKYLDERRAKDFVQWLMNK
# modifications: DMIA at position 1; E16/K20 lactam; C16 fatty acyl on Lys29 via γ-Glu-γ-Glu spacer
# B16: AIB2, AIB16, A18, D28, Lys10 γE-γE-C16 (SEQ ID NO: 655) (peptide)
# peptide: H[Aib]QGTFTSDK([γGlu-γGlu-Palmitoyl])SKYLD[Aib]RAAQDFVQWLMDT-NH2
# modifications: N-terminus assumed
# SMILES: CCCCCCCCCCCCCCCC(=O)N[C@@H](CCC(=O)N[C@@H](CCC(=O)NCCCC[C@H](NC(=O)[C@H](CC(=O)O)NC(=O)[C@H](CO)NC(=O)[C@@H](NC(=O)[C@H](Cc1ccccc1)NC(=O)[C@@H](NC(=O)CNC(=O)[C@H](CCC(N)=O)NC(=O)C(C)(C)NC(=O)[C@@H](N)Cc1c[nH]cn1)[C@@H](C)O)[C@@H](C)O)C(=O)N[C@@H](CO)C(=O)N[C@@H](CCCCN)C(=O)N[C@@H](Cc1ccc(O)cc1)C(=O)N[C@@H](CC(C)C)C(=O)N[C@@H](CC(=O)O)C(=O)NC(C)(C)C(=O)N[C@@H](CCCNC(=N)N)C(=O)N[C@@H](C)C(=O)N[C@@H](C)C(=O)N[C@@H](CCC(N)=O)C(=O)N[C@@H](CC(=O)O)C(=O)N[C@@H](Cc1ccccc1)C(=O)N[C@H](C(=O)N[C@@H](CCC(N)=O)C(=O)N[C@@H](Cc1c[nH]c2ccccc12)C(=O)N[C@@H](CC(C)C)C(=O)N[C@@H](CCSC)C(=O)N[C@@H](CC(=O)O)C(=O)N[C@H](C(N)=O)[C@@H](C)O)C(C)C)C(=O)O)C(=O)O
# B17: AIB2, AIB16, A18, D28, Lys10 γE-C16 (SEQ ID NO: 656) (peptide)
# peptide: H[Aib]QGTFTSDK([γGlu-Palmitoyl])SKYLD[Aib]RAAQDFVQWLMDT-NH2
# B18: DMIA1, E16/K20 lactam, Lys10 γE-γE-C16 (SEQ ID NO: 652) (peptide)
# peptide: [DMIA]SQGTFTSDK([γGlu-γGlu-Palmitoyl])SKYLDERRAKDFVQWLMNT
# modifications: lactam 16-20; reading uncertain
# Target: T1, GLP-1 receptor (UniProt P43220 24-463, limits assumed)
# Experiment: cell-based or functional assay
row,Binder,cAMP EC50
1,B1,108 pM
2,B2,43 pM
3,B3,4 pM
4,B4,6 pM

# Target: glucagon receptor (UniProt P47871 26-477, limits assumed)
# Sequence (P47871 26-477 limits assumed): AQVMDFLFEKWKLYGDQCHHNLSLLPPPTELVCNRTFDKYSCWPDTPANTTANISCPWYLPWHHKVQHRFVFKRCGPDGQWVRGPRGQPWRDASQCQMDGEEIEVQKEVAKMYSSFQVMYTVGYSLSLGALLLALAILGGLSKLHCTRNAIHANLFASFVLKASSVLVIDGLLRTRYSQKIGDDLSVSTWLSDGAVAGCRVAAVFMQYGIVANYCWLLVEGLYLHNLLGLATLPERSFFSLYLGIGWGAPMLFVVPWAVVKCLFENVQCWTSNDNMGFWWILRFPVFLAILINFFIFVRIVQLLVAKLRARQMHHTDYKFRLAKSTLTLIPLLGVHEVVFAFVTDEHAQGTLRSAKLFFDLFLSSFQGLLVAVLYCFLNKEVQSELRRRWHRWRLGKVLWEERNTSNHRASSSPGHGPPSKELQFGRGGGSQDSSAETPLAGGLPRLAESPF
# Experiment: cell-based or functional assay
row,Binder,in vitro activity EC50
1,B5,11 pM
2,B6,8 pM
3,B7,25 pM
4,B8,14 pM
5,B9,46100 pM
6,B10,2920 pM
7,B11,14 pM
8,B12,7 pM
9,B13,19 pM
10,B14,107 pM
11,B15,25 pM
12,B16,3 pM
13,B17,6 pM

# Target: T1, GLP-1 receptor
# Experiment: cell-based or functional assay
# Remark: another data set of the same source
row,Binder,in vitro activity EC50
1,B5,1.4 pM
2,B6,3 pM
3,B7,1.4 pM
4,B8,1.8 pM
5,B9,5 pM
6,B10,4 pM
7,B11,24 pM and 44 pM
8,B12,10 pM
9,B13,6 pM
10,B18,4 pM
11,B14,75 pM
12,B15,70 pM
13,B16,4 pM
14,B17,4 pM
